Target: LlaKI restriction endonuclease (Lactococcus lactis KLDS4 (endogenous))
Assay: SEC; Sephadex G-200 10/30 column, buffer B-100 (10 mM Tris-HCl pH 7.5, 1 mM EDTA, 10 mM 2-Mercaptoethanol, 100 mM NaCl), 0.5 mL/min; calibrated with protein standards; LlaKI found by assay of cleavage activity of the fractions; native about 112 kDa against 50 kDa denatured

stoichiometry N: 2
Substance: LlaKI restriction endonuclease (enzyme)
